# Assay results reported in patent publication US20140087995A1 (published 2014).
# Numbered stars: 1 amine (or outer) side, 2 acyl side, 3 side chain; on linkers, the order of the positions; unused ones are H or OH. Bridge positions count the residues as written; N and C are the ends. Side chains are listed from the residue outwards. Ends that are not written are not given here. * marks the point of attachment. C20 diacid = O=C(O)CCCCCCCCCCCCCCCCCCC(=O)*; γGlu = O=C(O)[C@H](CCC(=O)[*:2])N[*:1]; AEEA = NCCOCCOCC(=O)O
# T1: human calcitonin receptor (human, UniProt P30988 25-474)
# T1 sequence (looked up): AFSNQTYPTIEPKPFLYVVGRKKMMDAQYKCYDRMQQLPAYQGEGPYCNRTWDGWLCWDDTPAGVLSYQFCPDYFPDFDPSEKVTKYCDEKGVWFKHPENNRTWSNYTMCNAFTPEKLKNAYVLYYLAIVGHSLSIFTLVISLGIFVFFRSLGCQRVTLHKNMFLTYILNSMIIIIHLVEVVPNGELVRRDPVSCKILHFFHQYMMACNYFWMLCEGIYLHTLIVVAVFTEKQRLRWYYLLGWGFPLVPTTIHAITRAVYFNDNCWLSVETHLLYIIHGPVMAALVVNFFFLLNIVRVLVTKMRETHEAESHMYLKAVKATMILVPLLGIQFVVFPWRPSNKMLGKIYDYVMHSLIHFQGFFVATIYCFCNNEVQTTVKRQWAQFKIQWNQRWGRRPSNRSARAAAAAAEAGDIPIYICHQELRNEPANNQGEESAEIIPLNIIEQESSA
# B1: N^ε1-[2-[2-[2-[[(4S)-4-carboxy-4-(19-carboxynonadecanoylamino)butanoyl]amino]ethoxy]ethoxy]acetyl]-[Ala14,Arg17,Pro21,Pro27,Pro31]-h-amylin (peptide)
# peptide: K([AEEA-γGlu-C20 diacid])CNTATCATQRLAAFLRHSSPNFGAIPSSTPVGSNTY-NH2
# modifications: disulfide 2-7; N-terminus assumed
# SMILES: CC[C@H](C)[C@H](NC(=O)[C@H](C)NC(=O)CNC(=O)[C@H](Cc1ccccc1)NC(=O)[C@H](CC(N)=O)NC(=O)[C@@H]1CCCN1C(=O)[C@H](CO)NC(=O)[C@H](CO)NC(=O)[C@H](Cc1c[nH]cn1)NC(=O)[C@H](CCCNC(=N)N)NC(=O)[C@H](CC(C)C)NC(=O)[C@H](Cc1ccccc1)NC(=O)[C@H](C)NC(=O)[C@H](C)NC(=O)[C@H](CC(C)C)NC(=O)[C@H](CCCNC(=N)N)NC(=O)[C@H](CCC(N)=O)NC(=O)[C@@H](NC(=O)[C@H](C)NC(=O)[C@@H]1CSSC[C@H](NC(=O)[C@@H](N)CCCCNC(=O)COCCOCCNC(=O)CC[C@H](NC(=O)CCCCCCCCCCCCCCCCCCC(=O)O)C(=O)O)C(=O)N[C@@H](CC(N)=O)C(=O)N[C@@H]([C@@H](C)O)C(=O)N[C@@H](C)C(=O)N[C@@H]([C@@H](C)O)C(=O)N1)[C@@H](C)O)C(=O)N1CCC[C@H]1C(=O)N[C@@H](CO)C(=O)N[C@@H](CO)C(=O)N[C@H](C(=O)N1CCC[C@H]1C(=O)N[C@H](C(=O)NCC(=O)N[C@@H](CO)C(=O)N[C@@H](CC(N)=O)C(=O)N[C@H](C(=O)N[C@@H](Cc1ccc(O)cc1)C(N)=O)[C@@H](C)O)C(C)C)[C@@H](C)O
# notes: analogue of human amylin; also called compound 72
# B2: N^ε1-[2-[2-[2-[[(4S)-4-carboxy-4-(19-carboxynonadecanoylamino)butanoyl]amino]ethoxy]ethoxy]acetyl]-[Arg14,Arg17,Pro21,Pro27,Pro31]-h-amylin (peptide)
# peptide: K([AEEA-γGlu-C20 diacid])CNTATCATQRLARFLRHSSPNFGAIPSSTPVGSNTY-NH2
# modifications: disulfide 2-7; N-terminus assumed
# SMILES: CC[C@H](C)[C@H](NC(=O)[C@H](C)NC(=O)CNC(=O)[C@H](Cc1ccccc1)NC(=O)[C@H](CC(N)=O)NC(=O)[C@@H]1CCCN1C(=O)[C@H](CO)NC(=O)[C@H](CO)NC(=O)[C@H](Cc1c[nH]cn1)NC(=O)[C@H](CCCNC(=N)N)NC(=O)[C@H](CC(C)C)NC(=O)[C@H](Cc1ccccc1)NC(=O)[C@H](CCCNC(=N)N)NC(=O)[C@H](C)NC(=O)[C@H](CC(C)C)NC(=O)[C@H](CCCNC(=N)N)NC(=O)[C@H](CCC(N)=O)NC(=O)[C@@H](NC(=O)[C@H](C)NC(=O)[C@@H]1CSSC[C@H](NC(=O)[C@@H](N)CCCCNC(=O)COCCOCCNC(=O)CC[C@H](NC(=O)CCCCCCCCCCCCCCCCCCC(=O)O)C(=O)O)C(=O)N[C@@H](CC(N)=O)C(=O)N[C@@H]([C@@H](C)O)C(=O)N[C@@H](C)C(=O)N[C@@H]([C@@H](C)O)C(=O)N1)[C@@H](C)O)C(=O)N1CCC[C@H]1C(=O)N[C@@H](CO)C(=O)N[C@@H](CO)C(=O)N[C@H](C(=O)N1CCC[C@H]1C(=O)N[C@H](C(=O)NCC(=O)N[C@@H](CO)C(=O)N[C@@H](CC(N)=O)C(=O)N[C@H](C(=O)N[C@@H](Cc1ccc(O)cc1)C(N)=O)[C@@H](C)O)C(C)C)[C@@H](C)O
# notes: analogue of human amylin; also called compound 64
# B3: N^ε1-[2-[2-[2-[[(4S)-4-carboxy-4-(19-carboxynonadecanoylamino)butanoyl]amino]ethoxy]ethoxy]acetyl]-[Arg17,Pro21,Pro27,Glu35]-h-amylin (peptide)
# peptide: K([AEEA-γGlu-C20 diacid])CNTATCATQRLANFLRHSSPNFGAIPSSTNVGSETY-NH2
# modifications: disulfide 2-7; N-terminus assumed
# SMILES: CC[C@H](C)[C@H](NC(=O)[C@H](C)NC(=O)CNC(=O)[C@H](Cc1ccccc1)NC(=O)[C@H](CC(N)=O)NC(=O)[C@@H]1CCCN1C(=O)[C@H](CO)NC(=O)[C@H](CO)NC(=O)[C@H](Cc1c[nH]cn1)NC(=O)[C@H](CCCNC(=N)N)NC(=O)[C@H](CC(C)C)NC(=O)[C@H](Cc1ccccc1)NC(=O)[C@H](CC(N)=O)NC(=O)[C@H](C)NC(=O)[C@H](CC(C)C)NC(=O)[C@H](CCCNC(=N)N)NC(=O)[C@H](CCC(N)=O)NC(=O)[C@@H](NC(=O)[C@H](C)NC(=O)[C@@H]1CSSC[C@H](NC(=O)[C@@H](N)CCCCNC(=O)COCCOCCNC(=O)CC[C@H](NC(=O)CCCCCCCCCCCCCCCCCCC(=O)O)C(=O)O)C(=O)N[C@@H](CC(N)=O)C(=O)N[C@@H]([C@@H](C)O)C(=O)N[C@@H](C)C(=O)N[C@@H]([C@@H](C)O)C(=O)N1)[C@@H](C)O)C(=O)N1CCC[C@H]1C(=O)N[C@@H](CO)C(=O)N[C@@H](CO)C(=O)N[C@H](C(=O)N[C@@H](CC(N)=O)C(=O)N[C@H](C(=O)NCC(=O)N[C@@H](CO)C(=O)N[C@@H](CCC(=O)O)C(=O)N[C@H](C(=O)N[C@@H](Cc1ccc(O)cc1)C(N)=O)[C@@H](C)O)C(C)C)[C@@H](C)O
# notes: analogue of human amylin; also called compound 26
# B4: N^ε1-[2-[2-[2-[[(4S)-4-carboxy-4-(19-carboxynonadecanoylamino)butanoyl]amino]ethoxy]ethoxy]acetyl]-[Arg17,Pro21,Pro27,Pro31]-h-amylin (peptide)
# peptide: K([AEEA-γGlu-C20 diacid])CNTATCATQRLANFLRHSSPNFGAIPSSTPVGSNTY-NH2
# modifications: disulfide 2-7; N-terminus assumed
# SMILES: CC[C@H](C)[C@H](NC(=O)[C@H](C)NC(=O)CNC(=O)[C@H](Cc1ccccc1)NC(=O)[C@H](CC(N)=O)NC(=O)[C@@H]1CCCN1C(=O)[C@H](CO)NC(=O)[C@H](CO)NC(=O)[C@H](Cc1c[nH]cn1)NC(=O)[C@H](CCCNC(=N)N)NC(=O)[C@H](CC(C)C)NC(=O)[C@H](Cc1ccccc1)NC(=O)[C@H](CC(N)=O)NC(=O)[C@H](C)NC(=O)[C@H](CC(C)C)NC(=O)[C@H](CCCNC(=N)N)NC(=O)[C@H](CCC(N)=O)NC(=O)[C@@H](NC(=O)[C@H](C)NC(=O)[C@@H]1CSSC[C@H](NC(=O)[C@@H](N)CCCCNC(=O)COCCOCCNC(=O)CC[C@H](NC(=O)CCCCCCCCCCCCCCCCCCC(=O)O)C(=O)O)C(=O)N[C@@H](CC(N)=O)C(=O)N[C@@H]([C@@H](C)O)C(=O)N[C@@H](C)C(=O)N[C@@H]([C@@H](C)O)C(=O)N1)[C@@H](C)O)C(=O)N1CCC[C@H]1C(=O)N[C@@H](CO)C(=O)N[C@@H](CO)C(=O)N[C@H](C(=O)N1CCC[C@H]1C(=O)N[C@H](C(=O)NCC(=O)N[C@@H](CO)C(=O)N[C@@H](CC(N)=O)C(=O)N[C@H](C(=O)N[C@@H](Cc1ccc(O)cc1)C(N)=O)[C@@H](C)O)C(C)C)[C@@H](C)O
# notes: analogue of human amylin; also called compound 49
# B5: N^ε1-[2-[2-[2-[[(4S)-4-carboxy-4-(19-carboxynonadecanoylamino)butanoyl]amino]ethoxy]ethoxy]acetyl]-[Arg17,Pro21,Pro27,Pro31,His35]-h-amylin (peptide)
# peptide: K([AEEA-γGlu-C20 diacid])CNTATCATQRLANFLRHSSPNFGAIPSSTPVGSHTY-NH2
# modifications: disulfide 2-7; N-terminus assumed
# SMILES: CC[C@H](C)[C@H](NC(=O)[C@H](C)NC(=O)CNC(=O)[C@H](Cc1ccccc1)NC(=O)[C@H](CC(N)=O)NC(=O)[C@@H]1CCCN1C(=O)[C@H](CO)NC(=O)[C@H](CO)NC(=O)[C@H](Cc1c[nH]cn1)NC(=O)[C@H](CCCNC(=N)N)NC(=O)[C@H](CC(C)C)NC(=O)[C@H](Cc1ccccc1)NC(=O)[C@H](CC(N)=O)NC(=O)[C@H](C)NC(=O)[C@H](CC(C)C)NC(=O)[C@H](CCCNC(=N)N)NC(=O)[C@H](CCC(N)=O)NC(=O)[C@@H](NC(=O)[C@H](C)NC(=O)[C@@H]1CSSC[C@H](NC(=O)[C@@H](N)CCCCNC(=O)COCCOCCNC(=O)CC[C@H](NC(=O)CCCCCCCCCCCCCCCCCCC(=O)O)C(=O)O)C(=O)N[C@@H](CC(N)=O)C(=O)N[C@@H]([C@@H](C)O)C(=O)N[C@@H](C)C(=O)N[C@@H]([C@@H](C)O)C(=O)N1)[C@@H](C)O)C(=O)N1CCC[C@H]1C(=O)N[C@@H](CO)C(=O)N[C@@H](CO)C(=O)N[C@H](C(=O)N1CCC[C@H]1C(=O)N[C@H](C(=O)NCC(=O)N[C@@H](CO)C(=O)N[C@@H](Cc1c[nH]cn1)C(=O)N[C@H](C(=O)N[C@@H](Cc1ccc(O)cc1)C(N)=O)[C@@H](C)O)C(C)C)[C@@H](C)O
# notes: analogue of human amylin; also called compound 57
# B6: N^ε1-[2-[2-[2-[[(4S)-4-carboxy-4-(19-carboxynonadecanoylamino)butanoyl]amino]ethoxy]ethoxy]acetyl]-[Arg17,Pro21,Pro27,Pro28,Pro34]-h-amylin (peptide)
# peptide: K([AEEA-γGlu-C20 diacid])CNTATCATQRLANFLRHSSPNFGAIPPSTNVGPNTY-NH2
# modifications: disulfide 2-7; N-terminus assumed
# SMILES: CC[C@H](C)[C@H](NC(=O)[C@H](C)NC(=O)CNC(=O)[C@H](Cc1ccccc1)NC(=O)[C@H](CC(N)=O)NC(=O)[C@@H]1CCCN1C(=O)[C@H](CO)NC(=O)[C@H](CO)NC(=O)[C@H](Cc1c[nH]cn1)NC(=O)[C@H](CCCNC(=N)N)NC(=O)[C@H](CC(C)C)NC(=O)[C@H](Cc1ccccc1)NC(=O)[C@H](CC(N)=O)NC(=O)[C@H](C)NC(=O)[C@H](CC(C)C)NC(=O)[C@H](CCCNC(=N)N)NC(=O)[C@H](CCC(N)=O)NC(=O)[C@@H](NC(=O)[C@H](C)NC(=O)[C@@H]1CSSC[C@H](NC(=O)[C@@H](N)CCCCNC(=O)COCCOCCNC(=O)CC[C@H](NC(=O)CCCCCCCCCCCCCCCCCCC(=O)O)C(=O)O)C(=O)N[C@@H](CC(N)=O)C(=O)N[C@@H]([C@@H](C)O)C(=O)N[C@@H](C)C(=O)N[C@@H]([C@@H](C)O)C(=O)N1)[C@@H](C)O)C(=O)N1CCC[C@H]1C(=O)N1CCC[C@H]1C(=O)N[C@@H](CO)C(=O)N[C@H](C(=O)N[C@@H](CC(N)=O)C(=O)N[C@H](C(=O)NCC(=O)N1CCC[C@H]1C(=O)N[C@@H](CC(N)=O)C(=O)N[C@H](C(=O)N[C@@H](Cc1ccc(O)cc1)C(N)=O)[C@@H](C)O)C(C)C)[C@@H](C)O
# notes: analogue of human amylin; also called compound 55
# Target: T1, human calcitonin receptor
# Assay: cell-based or functional assay
row,Binder,hCTR funct. EC50 [nM]
1,B1,4.76
2,B2,22.9
3,B3,6.34
4,B4,2.39
5,B5,3.12
6,B6,0.731
